± gives the uncertainty stated by the source.
Experiment: self-splicing fitness, log relative to wild type (ln ratio); higher = more splicing; Tetrahymena group I intron in knt gene, E. coli kanamycin selection, DiMSum; sequences stand for … in CUCUCU…GGAGGGAAAAGUUAUCAGGCAUGCACCUGGUAGCUAGUCUUUAAACCAAUAGAUUGCAUCGGUUUAAAAGGCAAGACCGUCAAAUUGCGGGAAAGGGGUCAACAGCCGUUCAGUACCAAGUCUCAGGGGAAACUUUGAGAUGGCCUUGCAAAGGGUAUGGUAAUAAGCUGACGGACAUGGUCCUAACCACGCAGCCAAGUCCUAAGUCAACAGAUCUUCUGUUGAUAUGGAUGCAGUUCACAGACUAAAUGUCGGUCGGGGAAGAUGUAUUCUUCUCAUAAGAUAUAGUCGGACCUCUCCUUAAUGGGAGCUAGCGGAUGAAGUGAUGCAACACUGGAGCCGCUGGGAACUAAUUUGUAUGCGAAAGUAUAUUGAUUAGUUUUGGAGUACUCGUGGUCG
Method in brief: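 Colonies from six replicate transformations of E. coli BL21(DE3) were pooled and amplicon-sequenced on an Illumina HiSeq 2500. The library placed an intron with all eight P1ex-region nucleotides randomised inside the knt kanamycin-resistance gene on pET-22b(+), and cells grew overnight at 37°C or 30°C on LB agar with or without 25 μg/mL kanamycin (plus 100 μg/mL carbenicillin, 50 μM IPTG, 0.2% rhamnose). Fitness is the DiMSum error-weighted combination of wild-type-normalised replicate fold changes, kanamycin versus none.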

Sequence | self-splicing fitness (ln) (30 °C) | self-splicing fitness (ln) (37 °C)
AAGUAGCAAUAUUACGGGUU | -1.46 ± 0.13 | -1.55 ± 0.17
UUCGAGCAAUAUUACGUAAU | -2.06 ± 0.26 | -1.9 ± 0.36
GUCAAGCAAUAUUACGUGUU | -2.85 ± 0.089 | -1.35 ± 0.089
CCAUAGCAAUAUUACGGCCC | -1.72 ± 0.22 | –
CAGGAGCAAUAUUACGAUAU | -1.88 ± 0.17 | -2.37 ± 0.35
UUUGAGCAAUAUUACGGGGU | – | -2.11 ± 0.26
CGACAGCAAUAUUACGUGGG | -3.19 ± 0.14 | -1.54 ± 0.1
CUGUAGCAAUAUUACGCAUA | -2.83 ± 0.47 | -2.43 ± 0.41
AUCAAGCAAUAUUACGGUAA | -2.12 ± 0.12 | -0.319 ± 0.084
CAAGAGCAAUAUUACGAUUU | -3.11 ± 0.2 | -2.45 ± 0.16
UUUAAGCAAUAUUACGCACC | -2.05 ± 0.21 | -0.66 ± 0.22
CUGCAGCAAUAUUACGCAGG | -2.91 ± 0.17 | -2.15 ± 0.16
GUGUAGCAAUAUUACGGUGC | -2.8 ± 0.21 | -2.18 ± 0.18
AAAAAGCAAUAUUACGAACU | -0.488 ± 0.07 | -0.079 ± 0.087
CGAUAGCAAUAUUACGAACC | -2.68 ± 0.27 | -0.913 ± 0.28
UGGGAGCAAUAUUACGACGU | -2.93 ± 0.22 | -2.37 ± 0.29
UGGCAGCAAUAUUACGCCCC | -1.11 ± 0.29 | -0.487 ± 0.36

Sequence | self-splicing fitness (ln) (30 °C) | self-splicing fitness (ln) (37 °C)
AGUUAGCAAUAUUACGUCUG | -1.43 ± 0.074 | -1.72 ± 0.11
GGCAAGCAAUAUUACGUUGG | -2.5 ± 0.075 | -2.93 ± 0.12
CAAAAGCAAUAUUACGUGAC | -5 ± 0.36 | -2.47 ± 0.18
CAUGAGCAAUAUUACGUACA | -3.1 ± 0.22 | -2.17 ± 0.3
CAGUAGCAAUAUUACGGUGC | -3.8 ± 0.28 | -3.2 ± 0.31
GCGAAGCAAUAUUACGACGC | -1.98 ± 0.47 | –
GACAAGCAAUAUUACGAACA | -1.52 ± 0.13 | -0.000414 ± 0.11
CCCGAGCAAUAUUACGUGUC | -5.12 ± 0.38 | -2.8 ± 0.19
AUUUAGCAAUAUUACGCAAA | -1.86 ± 0.15 | -1.82 ± 0.17
GUACAGCAAUAUUACGCCAC | -1.49 ± 0.39 | –
UUUUAGCAAUAUUACGCCUA | -1 ± 0.2 | -0.553 ± 0.22
UUCUAGCAAUAUUACGCACU | -1.79 ± 0.29 | -1.69 ± 0.38
UGGAAGCAAUAUUACGAUGG | -2.38 ± 0.14 | -0.0527 ± 0.12
AAACAGCAAUAUUACGCCCG | -1.35 ± 0.27 | -0.868 ± 0.32
AAACAGCAAUAUUACGACAA | -0.939 ± 0.095 | -0.417 ± 0.11
AUAGAGCAAUAUUACGAUCC | -3.08 ± 0.33 | -2.18 ± 0.36
CCCUAGCAAUAUUACGGGAG | -3.67 ± 0.18 | -1.79 ± 0.14

From the supplement of paper PMC7877785
